Source: the Human Domainome abundance scans (Beltran et al. 2025)
± gives the uncertainty stated by the source.

B1: Poly(rC)-binding protein 1, residues 278 to 350; numbered along this chain, Q15365 (parent)
chain: TQTTHELTIPNNLIGCIIGRQGANINEIRQMSGAQIKIANPVEGSSGRQVTITGSAASISLAQYLINARLSSE

Variants of: B1
Experiment: abundance fitness (aPCA) (normalised: wild type 0, dead -1); higher = more abundant; growth selection in yeast, the domain comes from the species named
Settings: Homo sapiens

Row | Variant | abundance fitness
1 | N26E | -0.035 ± 0.046
2 | N26G | -0.27 ± 0.038
3 | N26F | -0.354 ± 0.1
4 | N26C | -0.196 ± 0.069
5 | N26I | -0.119 ± 0.096
6 | N26Q | 0.025 ± 0.05
7 | N26L | -0.291 ± 0.044
8 | N26P | -0.682 ± 0.092
9 | N26D | -0.08 ± 0.086
10 | N26H | -0.193 ± 0.11
11 | N26M | -0.094 ± 0.047
12 | N26K | 0.104 ± 0.048
13 | N26A | -0.002 ± 0.041
14 | L7Q | -0.382 ± 0.096
15 | L7T | -0.447 ± 0.079
16 | L7Y | -0.436 ± 0.13
17 | L7W | -0.274 ± 0.053
18 | L7S | -0.468 ± 0.072
19 | L7N | -0.803 ± 0.39
20 | L7P | -1.03 ± 0.34
21 | L7V | -0.043 ± 0.048
22 | L7R | -0.354 ± 0.051
23 | N11K | -0.171 ± 0.098
24 | N11E | -0.045 ± 0.061

Row | Variant | abundance fitness
25 | N11C | -0.165 ± 0.1
26 | N11D | 0.186 ± 0.076
27 | N11V | -0.352 ± 0.061
28 | N11W | -0.425 ± 0.075
29 | N11I | -0.21 ± 0.21
30 | N11A | -0.075 ± 0.054
31 | N11F | -0.061 ± 0.11
32 | N11Y | -0.549 ± 0.26
33 | N11S | -0.09 ± 0.064
34 | N11T | -0.169 ± 0.084
35 | N11L | -0.473 ± 0.084
36 | N11R | -0.264 ± 0.049
37 | N11M | -0.28 ± 0.1
38 | N11P | -0.347 ± 0.077
39 | N11H | -0.025 ± 0.16
40 | P10S | -0.274 ± 0.061
41 | P10I | -0.696 ± 0.49
42 | P10H | -0.442 ± 0.19
43 | P10W | -0.915 ± 0.14
44 | P10L | -0.597 ± 0.083
45 | P10T | -0.549 ± 0.11
46 | P10Q | -0.538 ± 0.1
47 | P10A | -0.117 ± 0.05
48 | P10C | -0.577 ± 0.13

Row | Variant | abundance fitness
49 | P10G | -0.474 ± 0.054
50 | P10K | -0.181 ± 0.077
51 | P10M | -0.868 ± 0.17
52 | P10N | -0.938 ± 0.37
53 | P10R | -0.504 ± 0.061
54 | P10D | -0.363 ± 0.093
55 | P10E | -0.237 ± 0.076
56 | P10V | -0.707 ± 0.1
57 | G22K | -0.329 ± 0.13
58 | G22Q | -0.228 ± 0.057
59 | G22S | 0.01 ± 0.038
60 | G22C | -0.113 ± 0.05
61 | G22V | -0.703 ± 0.072
62 | G22I | -1.04 ± 0.27
63 | G22R | -0.271 ± 0.048
64 | G22D | -0.249 ± 0.095
65 | G22E | 0.137 ± 0.067
66 | G22Y | -0.383 ± 0.18
67 | G22H | -0.122 ± 0.16
68 | G22N | 0.089 ± 0.12
69 | G22M | -0.205 ± 0.06
70 | G22T | -0.373 ± 0.073
71 | G22L | -0.408 ± 0.048
72 | G22P | -0.583 ± 0.074

Row | Variant | abundance fitness
73 | Q21I | -0.844 ± 0.22
74 | Q21Y | -0.217 ± 0.13
75 | Q21S | -0.09 ± 0.038
76 | Q21E | -0.09 ± 0.041
77 | Q21P | -0.568 ± 0.066
78 | Q21T | -0.207 ± 0.046
79 | Q21C | -0.281 ± 0.061
80 | Q21K | 0.081 ± 0.047
81 | Q21N | 0.052 ± 0.078
82 | Q21D | -0.134 ± 0.076
83 | Q21R | -0.012 ± 0.033
84 | Q21L | -0.437 ± 0.04
85 | Q21F | -0.236 ± 0.068
86 | Q21M | -0.322 ± 0.054
87 | Q21G | -0.106 ± 0.041
88 | Q21W | -0.339 ± 0.054
89 | Q21H | -0.032 ± 0.083
90 | N12D | -0.272 ± 0.11
91 | N12M | -0.316 ± 0.083
92 | N12C | -0.267 ± 0.12
93 | N12A | -0.148 ± 0.049
94 | N12S | -0.022 ± 0.047
95 | N12V | -0.306 ± 0.06
96 | N12R | 0.027 ± 0.039

Row | Variant | abundance fitness
97 | N12G | -0.282 ± 0.045
98 | N12E | -0.202 ± 0.067
99 | N12F | -0.459 ± 0.23
100 | N12T | -0.053 ± 0.062
101 | N12P | -0.186 ± 0.073
102 | N12H | -0.009 ± 0.1
103 | N12L | -0.35 ± 0.061
104 | N12K | -0.004 ± 0.063
105 | T8G | -0.559 ± 0.049
106 | T8S | -0.074 ± 0.066
107 | T8C | 0.098 ± 0.078
108 | T8D | 0.144 ± 0.097
109 | T8H | 0.017 ± 0.13
110 | T8Q | -0.076 ± 0.094
111 | T8K | -0.128 ± 0.11
112 | T8I | -0.008 ± 0.14
113 | T8N | 0.081 ± 0.13
114 | T8Y | 0.05 ± 0.11
115 | T8A | -0.124 ± 0.053
116 | T8L | -0.032 ± 0.052
117 | T8E | 0.069 ± 0.052
118 | T8W | -0.064 ± 0.049
119 | T8V | 0.207 ± 0.042
120 | T8M | 0.028 ± 0.085

Row | Variant | abundance fitness
121 | T8R | -0.028 ± 0.036
122 | I14D | -0.876 ± 0.14
123 | I14T | -0.17 ± 0.09
124 | I14N | -0.762 ± 0.26
125 | I14A | -0.228 ± 0.055
126 | I14Q | -0.73 ± 0.16
127 | I14F | -0.378 ± 0.17
128 | I14W | -0.689 ± 0.11
129 | I14K | -0.855 ± 0.23
130 | I14G | -0.948 ± 0.089
131 | I14C | -0.252 ± 0.088
132 | I14H | -0.485 ± 0.24
133 | I14P | -0.647 ± 0.14
134 | I14M | -0.118 ± 0.07
135 | I14E | -0.769 ± 0.13
136 | I14R | -0.573 ± 0.072
137 | I14L | -0.115 ± 0.055
138 | I14V | -0.116 ± 0.042
139 | I14S | -0.367 ± 0.067
140 | I9F | 0.066 ± 0.14
141 | I9C | -0.839 ± 0.15
142 | I9E | -0.942 ± 0.14
143 | I9D | -0.714 ± 0.17
144 | I9H | -0.039 ± 0.34

Row | Variant | abundance fitness
145 | I9N | -0.805 ± 0.21
146 | I9V | 0.076 ± 0.038
147 | I9R | -0.732 ± 0.066
148 | I9P | -0.835 ± 0.13
149 | I9S | -0.885 ± 0.14
150 | I9W | -0.847 ± 0.12
151 | I9Y | -0.567 ± 0.17
152 | I9M | -0.356 ± 0.073
153 | I9T | -0.79 ± 0.13
154 | I9G | -0.771 ± 0.07
155 | I9L | -0.072 ± 0.041
156 | I9Q | -0.767 ± 0.12
157 | I9A | -0.688 ± 0.081
158 | I25D | -0.908 ± 0.41
159 | I25R | -0.803 ± 0.08
160 | I25T | -0.367 ± 0.095
161 | I25P | -0.84 ± 0.19
162 | I25W | -0.622 ± 0.094
163 | I25S | -0.674 ± 0.095
164 | I25L | -0.072 ± 0.049
165 | I25F | -0.539 ± 0.13
166 | I25A | -0.565 ± 0.072
167 | I25H | 0.296 ± 0.24
